The values below come from paper PMC4368505 (Nature, 2015).

The chains are these.
B1: Drosophila Orc2 (amino acid residues 266-618) of the trimmed ORC core (domain or fragment, UniProt Q24168 266-618, looked up)
chain: QSARAKKSNEFVPESDGYFHSHASSKILTSDHTLDRLKNPRLAADRVFSLLSEIKTSAEHEGSINAIMEEYRSYFPKWMCILNEGFNILLYGLGSKHQLLQSFHREVLHKQTVLVVNGFFPSLTIKDMLDSITSDILDAGISPANPHEAVDMIEEEFALIPETHLFLIVHNLDGAMLRNVKAQAILSRLARIPNIHLLASIDHINTPLLWDQGKLCSFNFSWWDCTTMLPYTNETAFENSLLVQNSGELALSSMRSVFSSLTTNSRGIYMLIVKYQLKNKGNATYQGMPFRDLYSSCREAFLVSSDLALRAQLTEFLDHKLVKSKRSVDGSEQLTIPIDGALLQQFLEEQEKK
B2: Drosophila Orc4 (amino acid residues 1-459) (natural protein, UniProt Q9W102 1-459, looked up)
chain: MPEADRELVSIRRFLKERLQRDYTTLRGYAKERSNVRLLLQRTAEMGESNSLLLLGPRGSGKTTLINSVLADLLPNKSFGENTLIVHLDGNLHTDDRVALKSITVQMQLENAADGKVFGSFAENLAFLLQCLKAGGKHSKSVIFILEEFDLFCAHHNQTLLYNLFDVSQSAQAPICVLGVTCRLDVIELLEKRVKSRFSHRQVFLFPSLRRFEDYVDLCRDLLSLPTGNSLLLAAEKIYNLQNIQSGALYFSRNHFDPGEYGFSPRLRDAWNKQICKVLATQQARSTLQALHDFDISEAYLKNFLFRLVAHLRPQSPHITAEKMAAVGSQFEGDDKIELLCGLSVLELCLIIAIKHHSQIYDRDSFNFEIIYARFSKFAKVSTTMQAVERSIVLKAFEHLRIAELIMPLTGGAGGGVGKVQKEFEMHKLALTYSQIHHCMQRYQALPTEVAQWAQSSLI
B3: Drosophila Orc5 (amino acid residues 1-460) (natural protein, UniProt Q24169 1-460, looked up)
chain: MEAICSSLEPLFPCREAAIETLGELIGDSSETYPSAIYLFGHSGTGKTALTRAFLKECGKRQNVRTAHLNAIECYTTKIMLEILLDSLAPDQGDALKVDNMLDFVEQLRRQAATRVEDQGFLIAVDNAERLRDMDANVLPVLLRLQELTNLNLCVILLSQLPFEKFYNKTGLSEIVCLHLAQYNKAETQRILGSDFQQVRNQLLEQFAQDKKRLEICQEAVTEDFYNNYLNLFLSVFYKACRDVPELQLTARKCLSTYLEPVLDGTVDATDISRLWRHIAGPLRSALTQIYMRIEKPAEEVEDFTAIEDQSVRKLAQSLELPYYAKFLLIAAFLASHNAAKQDKRLFVKHHGKQRKRMQTVNARAKTTEKMSTTLGPKSFSIDRLLAIFYAILEEKVGLTCNLLSQISTLVHLNLLSFVSGEQNIMEGSARLQCTIGLEFVLQIGKVVGFNVRQYLCDFM
B4: Drosophila Orc1 (amino acid residues 533-924) of the trimmed ORC core (domain or fragment, UniProt O16810 533-924, looked up)
chain: SPSMQQRTDLPAKDSSKSELQLAREQLHVSVVPKSLPCREREFENIYAFLEGKIQDQCGGCMYVSGVPGTGKTATVTGVIRTLQRMAKQNELPAFEYLEINGMRLTEPRQAYVQIYKQLTGKTVSWEQAHALLEKRFTTPAPRRVTTVLLVDELDILCNRRQDVVYNLLDWPTKSAAKLVVVTIANTMDLPERLLMGKVTSRLGLTRLTFQPYSHKQLQEIVTARLGGSETFKGEAVQLVARKVAAVSGDARRALDICRRATEIADTAAVKCVTMLHVQQALAEMIASAKVQAIRNCSRMEQIFLQAIAAEVTRTGVEETTFMGVYQQVETIAAFMGVTFPPPGRALRLCSKLGAERLIISEHSRNDLFQKILLNVSADDIHYALRVEEMVN

What all share (test): crystal structure
Test [1] concerns the target T1, Drosophila Orc3 (amino acid residues 47-721) of the trimmed ORC core (Drosophila, UniProt Q7K2L1 47-721).
T1 sequence (looked up): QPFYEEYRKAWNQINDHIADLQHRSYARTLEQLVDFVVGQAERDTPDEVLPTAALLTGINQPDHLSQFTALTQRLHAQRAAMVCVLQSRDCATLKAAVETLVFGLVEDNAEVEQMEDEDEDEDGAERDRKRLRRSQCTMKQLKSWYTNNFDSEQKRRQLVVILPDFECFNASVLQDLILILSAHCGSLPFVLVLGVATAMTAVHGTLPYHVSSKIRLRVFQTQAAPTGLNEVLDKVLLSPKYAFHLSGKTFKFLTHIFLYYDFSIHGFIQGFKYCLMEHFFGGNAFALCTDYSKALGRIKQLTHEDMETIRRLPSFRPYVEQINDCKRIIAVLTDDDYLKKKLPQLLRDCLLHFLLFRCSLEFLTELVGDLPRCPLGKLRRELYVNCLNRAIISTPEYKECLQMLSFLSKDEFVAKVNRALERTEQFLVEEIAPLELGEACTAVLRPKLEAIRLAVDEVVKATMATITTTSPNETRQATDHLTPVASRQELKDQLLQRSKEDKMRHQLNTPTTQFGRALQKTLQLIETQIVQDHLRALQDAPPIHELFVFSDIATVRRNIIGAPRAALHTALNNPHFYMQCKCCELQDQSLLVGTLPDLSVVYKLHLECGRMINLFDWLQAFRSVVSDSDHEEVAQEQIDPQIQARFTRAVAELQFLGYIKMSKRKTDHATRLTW

Test [2] deals with B4.
Test [3] concerns the target B3.
Test [4] has as its target B2.

With B1, the binding result in test [1] and in test [2] was “binds” in each case. Turning to B2, the binding result in test [3] is recorded as “binds”.

For the molecule B3, the binding result in test [1] was “binds”.

As for B4, the binding result in test [4] and in test [1] was “binds” each time.
